Experimental findings from the nanobody polyreactivity screen of Harvey et al. (2022) are described below.

This data set is described as follows: yeast display, Sf9 membrane polyspecificity reagent, FACS + sequencing; frameworks hold sequencing errors. The method, boiled down: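 Nanobodies came from a synthetic yeast display library in Saccharomyces cerevisiae BJ5465, induced with galactose for 36–48 hours and stained for 1 hour at 4 °C with 10% biotinylated, detergent-solubilized Sf9 membrane reagent. Cells were enriched on streptavidin microbeads and then FACS-sorted, with low and high (top ~1%) gates set on anti-HA fluorescence for expression and streptavidin fluorescence for reagent binding. Each polyreactivity label reflects the gate a clone came from. Genes were amplified by colony PCR, sequenced by MiSeq 2 × 250 and filtered by CDR length.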
For the sequence “QVQLVESGGGLVQAGGSLRLSCAASGRNFKHYAMGWYRQAPGKERELVAAISYSGGSPKYADSVKGRFTISRYNAMNTVYLQMNSLKPEDTAVYYCAARFFTPFRFSYDYWGQGTQVTVSS”, the “polyreactivity (PSR sort gate)” value is “high polyreactivity”.

Take “QVQLVESGGGLVQAGGSLRLSCAASGRNFKNYDMVWYRQAPGKERELVADISWRSGSTNYSDSVKGRFTISRDNAKNNVYLQMNSLKPEDTAVYYCASKRRISGWSQFTSYADFDYWGQGTQVTVSS”: the “polyreactivity (PSR sort gate)” value is recorded as “low polyreactivity”.

With “QVQLVESGGGLVQAGGSLRLSCAASGRNFNYNAMGWYRQAPGKERELVAVISWSGRTYYADSVKGRFTISRDNAKNTVYLLMNSLKPEDTAVYYCNKRSYRVLYGYWGQGTQVTVSS”, the “polyreactivity (PSR sort gate)” value was “high polyreactivity”. In the case of “QVQLVESGGGLVQAGGSLRLSCAASGRNFPYYAMGWYRQAPGKERELVAAISSSGGGTYYADSVKGRFTISRDNEKNTVYLQMNSLKPEDTAVYYCAAVYKVHSGLYDYWGQGTQVTLSS” it was “high polyreactivity”; in that of “QVQLVESGGGLVQAGGSLRLSCAASGRNFSFNTMVWYIQAPRKERELVAAITSSSARTYYADSVKGRFTISRDNAKNTVYLQMNSLKPEDTAVDYCDTRDWVGSVRMGYWGQGTQVTVSS”, “high polyreactivity”; in that of “QVQLVESGGGLVQAGGSLRLSCAASGRNFSLYAMGWYRQAPGKERELVAAISRGGSTYYADSVKGRFTISRDNAKNTVYLQMNSLKPEDTAVYYCAAAPDYRAEYDYWGQGTQVTVSS”, “low polyreactivity”. With “QVQLVESGGGLVQAGGSLRLSCAASGRNFTRNAMGWYRQAPGKEREFVAAISYRGGSTYYADSVKGRFTISRDNAKNTVYLQMNSLKPEDSAVYYCAKRIYPYYGELYWGQGTQVTVSS”, the “polyreactivity (PSR sort gate)” value is recorded as “high polyreactivity”. With “QVQLVESGGGLVQAGGSLRLSCAASGRNFWVYAMGWYRQAPGKERELVAAISLSGGRTYYADSVKGRFTITRDKAKNNVNLQMNSLKPEDTAVYYCYAVYPKRGGGRIVDYWGQGTQVTVSS”, the “polyreactivity (PSR sort gate)” value is “high polyreactivity”. In the case of “QVQLVESGGGLVQAGGSLRLSCAASGRNFYVYAMGWYRQAPGKERELVATISRGGSTTYADSVKGRFTISRDNAKNTVYLQMNSLKPEDTAVYYCATELLGGRRTVAYYWGQGTQVTVSS” it was “low polyreactivity”; in that of “QVQLVESGGGLVQAGGSLRLSCAASGRNFYVYGLGWYRQAPGKERELVASITYRGGSTSYADSVKGRFTISRDNAKNTVYLQMNSLKPEDTAVYYCNADTYYRYDYWGQGTQVTVSS”, “high polyreactivity”. Consider “QVQLVESGGGLVQAGGSLRLSCAASGRNFYYNAMGWYRQAPGKERELVAVISGRGGSTYYADSVKGRFTISRDNAKNTVYLQMNSLKPEDTAVYYCAAGYTRPWRFTYYYWGQGTQVTVSS”, for which the “polyreactivity (PSR sort gate)” value is “high polyreactivity”. On to “QVQLVESGGGLVQAGGSLRLSCAASGRNITANAMGWYRQAPGKEREFVAAINVSGGSTYYADSVKGRFTISRDNAKNTVYFQMNSLKPEDTAVYYCNADYYYYDIYWWQMDYWGLGTQVTVSS”, for which the “polyreactivity (PSR sort gate)” value is “low polyreactivity”. As to “QVQLVESGGGLVQAGGSLRLSCAASGRPFRGYAMGWYRQAPGKDRELVAAITRSGGSTYYADSVKGRFTISRDNAKNTVYVQMTSLKPEDTAVSYCNAVRHAQSRWPYGYWGQGTQVTVSS”, the “polyreactivity (PSR sort gate)” value is “high polyreactivity”.

For “QVQLVESGGGLVQAGGSLRLSCAASGRPFVGNVMGWYRQAPGKERELVDAITRTAGSTYYADSVKGRFTISRDNAKNTVYLEMNSLKPEDTAVDYCAVEGIYRWYDYSWYYTSTYDYWGQGTQVTVSS”, the “polyreactivity (PSR sort gate)” value was “low polyreactivity”.

With “QVQLVESGGGLVQAGGSLRLSCAASGRSFSGYAMGWYRQAPGKERDLVAAITSSGGRTYYADSVKGRFTISRDNAKNTVYVQMNSLKPEETAVYYSAAMRPGYRPQGLDYWGQGTQVTVSS”, the “polyreactivity (PSR sort gate)” value is listed as “low polyreactivity”. Consider “QVQLVESGGGLVQAGGSLRLSCAASGRSFYFNAMGWYRQAPGKERELVATISSSSTTYADSVKRRFTISRDNAKNTVYLQMTSLKPEDTAVYYCAARLGTYGEWGRTSYLRWYDYWGQGTQVTVSS”, for which the “polyreactivity (PSR sort gate)” value is “low polyreactivity”.
